Test results reported in article PMC314469, “Protein Interaction Networks by Proteome Peptide Scanning” (PLoS Biology, 2004).

T1: amphyphisin SH3 (AMPH_HUMAN), P49418
T1 chain: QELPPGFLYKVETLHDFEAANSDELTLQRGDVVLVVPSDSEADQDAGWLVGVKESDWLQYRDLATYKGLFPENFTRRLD


Molecular target: T1, amphyphisin SH3 (AMPH_HUMAN), P49418
Assay: SPOT array

Binder	normalised SPOT signal, Boehringer light units (BLU); mean over the file's lines of this peptide
ITLTPVRPDRTPRP [Q9H5F9 434-447]	6730
IYSTLKRPQVETKI [Q14699 89-102]	19.8
IYVSLKRPSWMVDN [P42702 4-17]	56.9
KDLALLRPSKRQPP [Q9H6A9 265-278]	66.4
ISWGLRRPIRLQMQ [P50749 58-71]	929
KANSPEKPPEAGAA [Q9UFC0 257-271]	40.8
ALTLPRRPFLHSST [Q9H6Z2 106-119]	1530
KDPGPPRPPAGATQ [Q9H7K4 46-60]	43.9
ITVSPNKPPAVSPG [Q9UFP7 465-479]	41.6
KAVLPLRPPWPLWG [AAH32349 3-17]	100
KEQEPKRPHIKKPL [Q9UJU2 290-303]	39
KAGRPSKPPSPKQN [Q9P2M4 294-308]	28
IVKQIRRPKHVVVK [Q9Y4F1 101-114]	13

More lines, now with the values ahead:

normalised SPOT signal, Boehringer light units (BLU); mean over the file's lines of this peptide	Binder
56.3	KEMVPAKPPKGLVG [Q99651 220-234]
66.7	KDVLFIRPRKYIHS [Q92613 102-115]
8570	KAPPPTRPKRNDST [Q9C0I2 1104-1117]
535	ISSQIERPIRIVAL [O75643 1042-1055]
30.5	KDEKPKRPEDESGR [Q9BZI7 330-343]
146	KAFPPPRPPPPNWE [Q9ULL8 1100-1114]
56.2	KAISFLRPTKENVD [Q9Y4Z6 67-80]
36.3	ITGTLKRPSLPEEE [O14514 1249-1262]
164	KAGSISRPAKDESD [Q9H2U9 455-468]
1150	KDPGPPRPHRPEAT [Q9Y6J0 1992-2005]
258	AMLSIPRPSKRFWM [Q92508 1232-1245]
39.1	ITKSLRRPETSYRQ [P24821 757-770]
48.3	KASRPIKPPGPPIN [Q8WZ42 18722-18736]
85	IYTELSRPSKRRMQ [Q9UJU8 278-291]
48.1	AAPFPDRPPAHLVS [Q9P283 1-15]
27.4	IVYSFRRPVWPAVV [Q9Y5I0 277-290]
216	ISTPPSRPPQVKTA [Q01826 463-477]
51.2	ALTSPGRPPMGFTT [BAC03837 101-115]

molecular target: endophilin SH3 (SH3G2_HUMAN), Q99962; assay: SPOT array

Binder	normalised SPOT signal, Boehringer light units (BLU); mean over the file's lines of this peptide
ITLTPVRPDRTPRP [Q9H5F9 434-447]	6160
IYSTLKRPQVETKI [Q14699 89-102]	114
IYVSLKRPSWMVDN [P42702 4-17]	46.4
KDLALLRPSKRQPP [Q9H6A9 265-278]	226
ISWGLRRPIRLQMQ [P50749 58-71]	730
KANSPEKPPEAGAA [Q9UFC0 257-271]	47.6
ALTLPRRPFLHSST [Q9H6Z2 106-119]	7630
KDPGPPRPPAGATQ [Q9H7K4 46-60]	229
ITVSPNKPPAVSPG [Q9UFP7 465-479]	59.3
KAVLPLRPPWPLWG [AAH32349 3-17]	11600
KEQEPKRPHIKKPL [Q9UJU2 290-303]	63.9
KAGRPSKPPSPKQN [Q9P2M4 294-308]	3150
IVKQIRRPKHVVVK [Q9Y4F1 101-114]	43.3

The remaining lines, values ahead:

normalised SPOT signal, Boehringer light units (BLU); mean over the file's lines of this peptide	Binder
276	KEMVPAKPPKGLVG [Q99651 220-234]
86.6	KDVLFIRPRKYIHS [Q92613 102-115]
3140	KAPPPTRPKRNDST [Q9C0I2 1104-1117]
173	ISSQIERPIRIVAL [O75643 1042-1055]
314	KDEKPKRPEDESGR [Q9BZI7 330-343]
13600	KAFPPPRPPPPNWE [Q9ULL8 1100-1114]
68.6	KAISFLRPTKENVD [Q9Y4Z6 67-80]
18.8	ITGTLKRPSLPEEE [O14514 1249-1262]
127	KAGSISRPAKDESD [Q9H2U9 455-468]
412	KDPGPPRPHRPEAT [Q9Y6J0 1992-2005]
20.1	AMLSIPRPSKRFWM [Q92508 1232-1245]
46.8	ITKSLRRPETSYRQ [P24821 757-770]
2120	KASRPIKPPGPPIN [Q8WZ42 18722-18736]
60.3	IYTELSRPSKRRMQ [Q9UJU8 278-291]
90.4	AAPFPDRPPAHLVS [Q9P283 1-15]
147	IVYSFRRPVWPAVV [Q9Y5I0 277-290]
1960	ISTPPSRPPQVKTA [Q01826 463-477]
260	ALTSPGRPPMGFTT [BAC03837 101-115]
